The values that follow come from publication PMC10366140.

For this series, the system named is apRAD51C-CTD-1 WT (Alvinella pompejana). Briefly: fluorescence polarization. As to conditions: FP: 20 mM HEPES pH 8, 80 mM NaCl, 2.5 mM ATP, 2.5 mM MgCl2, 1 mM DTT, 0.1 mg/mL BSA, 10 nM DNA, 37 C 20 min, EMSA: 20 mM Tris pH 8.0, 150 mM KCl, 4 C 15 min.

The Kd is a measure of binding affinity in units of concentration. A high value points to a looser complex. Regarding TTTTTTTTTTTTTTTTTTTT [poly-20dT], the equilibrium dissociation constant (Kd) was 1.25 µM.
